Experimental data reported in article PMC4357707 (Nucleic Acids Research, 2015).

How the values were obtained:
HEN1-RHK389,397,477AAA [1] = target: T1, HEN1-RHK389,397,477AAA (Arabidopsis thaliana, UniProt Q9C5Q8 1-942, R389A;H397A;K477A); test: EMSA
T1 sequence: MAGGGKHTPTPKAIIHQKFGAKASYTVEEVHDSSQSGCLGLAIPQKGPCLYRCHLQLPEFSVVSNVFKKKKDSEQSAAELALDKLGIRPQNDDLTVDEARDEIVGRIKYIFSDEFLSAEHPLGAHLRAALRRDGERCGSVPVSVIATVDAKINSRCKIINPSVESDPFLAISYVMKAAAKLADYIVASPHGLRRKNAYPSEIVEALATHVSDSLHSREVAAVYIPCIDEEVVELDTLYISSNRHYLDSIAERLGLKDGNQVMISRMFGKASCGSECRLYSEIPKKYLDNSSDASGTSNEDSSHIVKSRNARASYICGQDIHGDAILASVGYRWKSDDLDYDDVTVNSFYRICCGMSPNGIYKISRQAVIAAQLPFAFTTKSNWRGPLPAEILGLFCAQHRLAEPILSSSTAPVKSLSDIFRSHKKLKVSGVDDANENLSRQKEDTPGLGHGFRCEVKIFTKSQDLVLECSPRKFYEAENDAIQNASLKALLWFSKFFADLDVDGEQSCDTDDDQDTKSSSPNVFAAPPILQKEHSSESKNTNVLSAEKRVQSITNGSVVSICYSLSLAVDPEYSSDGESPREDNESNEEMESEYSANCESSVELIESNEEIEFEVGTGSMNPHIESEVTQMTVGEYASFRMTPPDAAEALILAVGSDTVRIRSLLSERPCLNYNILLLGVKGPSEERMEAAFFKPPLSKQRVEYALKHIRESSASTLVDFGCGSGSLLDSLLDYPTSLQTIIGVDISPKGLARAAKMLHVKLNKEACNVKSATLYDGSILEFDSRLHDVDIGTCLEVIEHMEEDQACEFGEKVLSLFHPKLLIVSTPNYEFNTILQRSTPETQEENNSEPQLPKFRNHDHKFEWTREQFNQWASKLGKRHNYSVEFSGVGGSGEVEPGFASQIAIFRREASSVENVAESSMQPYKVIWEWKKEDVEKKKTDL

HYL1 = target: T2, HYL1 (Arabidopsis thaliana, UniProt O04492 1-419); test: EMSA
T2 sequence: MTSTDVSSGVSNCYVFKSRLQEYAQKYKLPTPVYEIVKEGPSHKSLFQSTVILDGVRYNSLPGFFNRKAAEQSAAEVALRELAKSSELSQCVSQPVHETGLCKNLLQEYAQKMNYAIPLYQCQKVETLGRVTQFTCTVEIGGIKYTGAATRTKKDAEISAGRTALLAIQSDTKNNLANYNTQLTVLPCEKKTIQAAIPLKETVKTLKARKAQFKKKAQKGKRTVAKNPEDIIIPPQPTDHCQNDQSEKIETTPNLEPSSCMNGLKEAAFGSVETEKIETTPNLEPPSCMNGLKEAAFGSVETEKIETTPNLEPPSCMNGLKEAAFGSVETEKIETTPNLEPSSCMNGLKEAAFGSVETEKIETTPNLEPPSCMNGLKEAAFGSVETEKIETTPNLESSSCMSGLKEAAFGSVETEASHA

HEN1 wt;HYL1 = target: T3, HEN1 wt;HYL1 (Arabidopsis thaliana;Arabidopsis …, UniProt Q9C5Q8;O04492 1-942;1-419, |); test: EMSA
T3 sequence 1: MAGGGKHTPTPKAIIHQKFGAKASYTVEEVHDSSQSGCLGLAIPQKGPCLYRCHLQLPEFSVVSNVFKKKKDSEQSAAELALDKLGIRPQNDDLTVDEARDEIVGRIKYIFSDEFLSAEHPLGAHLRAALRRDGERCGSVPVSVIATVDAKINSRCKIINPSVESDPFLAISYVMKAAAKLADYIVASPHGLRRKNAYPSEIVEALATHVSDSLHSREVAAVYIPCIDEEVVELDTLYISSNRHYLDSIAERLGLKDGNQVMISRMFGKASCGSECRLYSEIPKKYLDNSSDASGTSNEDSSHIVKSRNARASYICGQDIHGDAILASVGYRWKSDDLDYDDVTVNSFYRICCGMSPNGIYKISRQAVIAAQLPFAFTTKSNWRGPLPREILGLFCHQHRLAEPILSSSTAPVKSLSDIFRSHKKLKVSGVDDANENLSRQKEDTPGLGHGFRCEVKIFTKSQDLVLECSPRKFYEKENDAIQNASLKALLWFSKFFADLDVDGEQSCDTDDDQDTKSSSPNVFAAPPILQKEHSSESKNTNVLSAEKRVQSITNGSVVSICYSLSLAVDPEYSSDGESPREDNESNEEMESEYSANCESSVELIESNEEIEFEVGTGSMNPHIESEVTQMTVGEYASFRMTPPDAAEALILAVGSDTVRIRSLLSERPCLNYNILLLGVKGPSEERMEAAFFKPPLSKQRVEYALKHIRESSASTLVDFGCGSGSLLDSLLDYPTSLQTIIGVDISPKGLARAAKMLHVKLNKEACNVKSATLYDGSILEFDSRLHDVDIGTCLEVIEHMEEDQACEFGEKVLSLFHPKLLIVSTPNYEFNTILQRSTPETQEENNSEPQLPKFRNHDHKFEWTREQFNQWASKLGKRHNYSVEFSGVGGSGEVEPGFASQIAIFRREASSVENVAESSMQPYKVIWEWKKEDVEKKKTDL
T3 sequence 2: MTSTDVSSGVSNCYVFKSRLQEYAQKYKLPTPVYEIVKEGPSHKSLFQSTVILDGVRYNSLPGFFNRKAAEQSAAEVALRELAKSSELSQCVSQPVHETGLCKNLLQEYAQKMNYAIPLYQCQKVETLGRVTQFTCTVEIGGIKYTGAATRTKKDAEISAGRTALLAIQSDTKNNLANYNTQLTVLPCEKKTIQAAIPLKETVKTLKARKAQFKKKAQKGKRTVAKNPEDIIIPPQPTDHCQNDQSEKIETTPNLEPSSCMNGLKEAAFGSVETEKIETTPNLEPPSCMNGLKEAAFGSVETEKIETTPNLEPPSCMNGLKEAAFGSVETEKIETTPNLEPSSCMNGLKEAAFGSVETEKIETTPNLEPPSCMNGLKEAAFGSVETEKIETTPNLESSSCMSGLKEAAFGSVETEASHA

[2] = target: T4, HEN1-R^1LR^2 (His-tagged, residues 1–519) (Arabidopsis thaliana, UniProt Q9C5Q8 1-519); test: pull-down
T4 sequence (looked up): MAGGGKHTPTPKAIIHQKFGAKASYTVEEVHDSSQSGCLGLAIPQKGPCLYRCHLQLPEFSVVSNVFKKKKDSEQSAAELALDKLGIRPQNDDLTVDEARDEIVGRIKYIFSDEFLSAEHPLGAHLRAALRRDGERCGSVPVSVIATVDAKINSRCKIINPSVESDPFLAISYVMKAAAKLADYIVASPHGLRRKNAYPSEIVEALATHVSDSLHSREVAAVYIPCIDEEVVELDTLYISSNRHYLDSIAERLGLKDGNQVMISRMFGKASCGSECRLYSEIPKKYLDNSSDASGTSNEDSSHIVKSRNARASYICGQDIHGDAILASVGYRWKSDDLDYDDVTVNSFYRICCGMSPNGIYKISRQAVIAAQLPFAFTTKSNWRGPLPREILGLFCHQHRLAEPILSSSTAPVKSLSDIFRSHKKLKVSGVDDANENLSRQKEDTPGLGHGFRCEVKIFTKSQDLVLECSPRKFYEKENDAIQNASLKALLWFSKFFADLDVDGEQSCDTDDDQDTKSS

HEN1 wt = target: T5, HEN1 wt (Arabidopsis thaliana, UniProt Q9C5Q8 1-942); test: EMSA
T5 sequence: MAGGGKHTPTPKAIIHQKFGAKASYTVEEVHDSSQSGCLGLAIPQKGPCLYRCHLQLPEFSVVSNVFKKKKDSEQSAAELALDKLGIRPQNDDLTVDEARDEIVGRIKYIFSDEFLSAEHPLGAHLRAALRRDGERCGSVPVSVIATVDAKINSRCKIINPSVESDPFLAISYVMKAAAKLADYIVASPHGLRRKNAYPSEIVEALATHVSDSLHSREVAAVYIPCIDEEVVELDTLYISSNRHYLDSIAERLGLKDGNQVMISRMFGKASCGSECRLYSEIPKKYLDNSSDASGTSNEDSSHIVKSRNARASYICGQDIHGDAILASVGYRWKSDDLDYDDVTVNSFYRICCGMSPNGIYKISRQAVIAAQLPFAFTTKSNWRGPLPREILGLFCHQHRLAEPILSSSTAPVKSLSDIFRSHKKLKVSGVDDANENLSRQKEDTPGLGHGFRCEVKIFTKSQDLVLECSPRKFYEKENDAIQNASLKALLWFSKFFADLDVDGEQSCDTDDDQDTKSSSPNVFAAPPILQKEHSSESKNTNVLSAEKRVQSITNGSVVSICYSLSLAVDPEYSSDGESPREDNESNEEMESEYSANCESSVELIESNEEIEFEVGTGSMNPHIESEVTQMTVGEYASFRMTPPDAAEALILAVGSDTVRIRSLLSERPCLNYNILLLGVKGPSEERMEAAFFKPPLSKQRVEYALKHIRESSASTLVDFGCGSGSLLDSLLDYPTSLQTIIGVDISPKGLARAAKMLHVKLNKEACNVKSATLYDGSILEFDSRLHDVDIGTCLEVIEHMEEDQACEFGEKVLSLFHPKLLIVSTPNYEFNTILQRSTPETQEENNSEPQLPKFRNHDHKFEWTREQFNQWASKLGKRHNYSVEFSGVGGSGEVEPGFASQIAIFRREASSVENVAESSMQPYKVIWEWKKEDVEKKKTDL

HEN1 Δ38-45 = target: T6, HEN1 Δ38-45 (Arabidopsis thaliana, UniProt Q9C5Q8 1-37+=G+46-942, internal_change); test: EMSA
T6 sequence: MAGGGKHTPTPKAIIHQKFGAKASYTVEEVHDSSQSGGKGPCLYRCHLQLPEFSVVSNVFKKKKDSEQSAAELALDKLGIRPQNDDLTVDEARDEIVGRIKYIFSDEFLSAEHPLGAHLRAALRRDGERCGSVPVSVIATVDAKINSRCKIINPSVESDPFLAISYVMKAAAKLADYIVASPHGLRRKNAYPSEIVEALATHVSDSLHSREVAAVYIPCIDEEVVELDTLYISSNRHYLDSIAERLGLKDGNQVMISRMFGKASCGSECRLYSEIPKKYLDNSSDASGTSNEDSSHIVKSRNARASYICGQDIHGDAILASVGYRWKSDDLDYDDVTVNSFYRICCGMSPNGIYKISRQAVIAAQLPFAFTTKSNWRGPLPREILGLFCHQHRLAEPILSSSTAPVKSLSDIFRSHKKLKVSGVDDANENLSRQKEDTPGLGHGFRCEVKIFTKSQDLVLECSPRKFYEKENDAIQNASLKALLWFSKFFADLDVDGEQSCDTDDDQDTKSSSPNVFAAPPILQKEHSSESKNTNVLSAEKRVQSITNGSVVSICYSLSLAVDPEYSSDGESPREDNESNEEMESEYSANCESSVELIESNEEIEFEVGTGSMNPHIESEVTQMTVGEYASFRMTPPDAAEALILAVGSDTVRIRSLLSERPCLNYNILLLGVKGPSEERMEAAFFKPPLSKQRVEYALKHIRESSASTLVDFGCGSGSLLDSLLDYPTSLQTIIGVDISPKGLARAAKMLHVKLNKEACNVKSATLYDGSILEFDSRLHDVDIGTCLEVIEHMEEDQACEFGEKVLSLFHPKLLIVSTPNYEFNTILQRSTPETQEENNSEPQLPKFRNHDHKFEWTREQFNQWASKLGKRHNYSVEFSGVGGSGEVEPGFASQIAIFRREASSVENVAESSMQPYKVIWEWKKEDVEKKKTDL

HEN1-RHK389,397,477AAA [3] = target: T1, HEN1-RHK389,397,477AAA; test: EMSA; remark: listed apart in the source

B1: siR173/siR173* (dsRNA)
RNA 1: UUAACGCUUGCAGAGAGAAUCAC
RNA 2: GAUUCUCUCUGCAAGCGUUAAAG
B1 was tested, and the Kd (HEN1-RHK389,397,477AAA [1]) was 293 ± 27 nM, the binding result (HYL1) was “binds” and the binding result (HEN1 wt;HYL1) was “binds”.

B2: GST-HYL1 (GST-fused full-length HYL1) (natural protein, UniProt O04492 1-419, looked up)
chain: MTSTDVSSGVSNCYVFKSRLQEYAQKYKLPTPVYEIVKEGPSHKSLFQSTVILDGVRYNSLPGFFNRKAAEQSAAEVALRELAKSSELSQCVSQPVHETGLCKNLLQEYAQKMNYAIPLYQCQKVETLGRVTQFTCTVEIGGIKYTGAATRTKKDAEISAGRTALLAIQSDTKNNLANYNTQLTVLPCEKKTIQAAIPLKETVKTLKARKAQFKKKAQKGKRTVAKNPEDIIIPPQPTDHCQNDQSEKIETTPNLEPSSCMNGLKEAAFGSVETEKIETTPNLEPPSCMNGLKEAAFGSVETEKIETTPNLEPPSCMNGLKEAAFGSVETEKIETTPNLEPSSCMNGLKEAAFGSVETEKIETTPNLEPPSCMNGLKEAAFGSVETEKIETTPNLESSSCMSGLKEAAFGSVETEASHA
B2: binds [2].

B3: miR173CH3/miR173*CH3 (dsRNA)
RNA 1: UUCGCUUGCAGAGAGAAAUCAC
RNA 2: GAUUCUCUGUGUAAGCGAAAG
modifications: 2'-O-methyl on 3'-terminal nucleotide of both strands
In the case of B3, the Kd (HEN1 wt) is reported as 7.2 ± 0.1 nM, the Kd (HEN1 Δ38-45) is reported as 2.1 ± 0.1 nM and the binding result (HEN1-RHK389,397,477AAA [3]) is reported as “no binding”.
